Results as given in PMC11900225, “Deletions in Glial Fibrillary Acidic Protein Leading to Alterations in Intermediate Filament Assembly and Network Formation” (International Journal of Molecular Sciences, 2025).

Columns and labels:
[1] = molecular target: the molecule itself; experiment: high-speed sedimentation assay of assembled filaments; assembly mixture layered on a 0.85 M sucrose cushion in assembly buffer, 80,000 x g, 20 min, 20 °C; supernatant and pellet by SDS-PAGE and Coomassie; efficiency is the percent of total protein in the pellet
[2] = molecular target: the molecule itself; experiment: low-speed sedimentation assay of assembled filaments; assembly mixture centrifuged at 1000 x g for 5 min at room temperature; supernatant and pellet by SDS-PAGE and Coomassie; monitors filament aggregation
[3] = molecular target: T1, Glial fibrillary acidic protein (GFAP), full-length wild type, human GFAPα (human, UniProt P14136-1 1-432); experiment: high-speed sedimentation assay of assembled filaments; assembly mixture layered on a 0.85 M sucrose cushion in assembly buffer, 80,000 x g, 20 min, 20 °C; supernatant and pellet by SDS-PAGE and Coomassie; efficiency is the percent of total protein in the pellet; conditions: both partners purified
T1 construct: Glial fibrillary acidic protein, major isoform GFAPα, human, full length, cDNA in pET23b; Expressed from pET23b; also called WT GFAP; WT

[4] = molecular target: T1, Glial fibrillary acidic protein (GFAP), …; experiment: in vitro filament assembly with negative-stain transmission electron microscopy; 0.2 mg/mL GFAP dialysed stepwise out of 6 M urea into low-salt buffer, then into assembly buffer (10 mM Tris-HCl, 50 mM NaCl, 1 mM DTT, pH 7) at 34–36 °C for 12–16 h; stained with 1% uranyl acetate; mutants alone or coassembled with WT at stated proportions; conditions: both partners purified

| binding result [3] | binding result [4] | Binder | binding result [1] | percent in the pellet (low-speed sedimentation) [2] |
| --- | --- | --- | --- | --- |
| – | – | CΔ92 GFAP (domain or fragment, human, UniProt P14136 1-340, looked up, Human GFAPα with 92 residues deleted from the C-terminus (CΔX is the number of residues deleted from the C-terminus); fragment potentially generated by calpain cleavage at 337SLKD340; Expressed from pET23b; no tag named) MERRRITSAARRSYVSSGEMMVGGLAPGRRLGPGTRLSLARMPPPLPTRVDFSLAGALNAGFKETRASERAEMMELNDRFASYIEKVRFLEQQNKALAAELNQLRAKEPTKLADVYQAELRELRLRLDQLTANSARLEVERDNLAQDLATVRQKLQDETNLRLEAENNLAAYRQEADEATLARLDLERKIESLEEEIRFLRKIHEEEVRELQEQLARQQVHVELDVAKPDLTAALKEIRTQYEAMASSNMHEAEEWYRSKFADLTDAAARNAELLRQAKHEANDYRRQLQSLTCDLESLRGTNESLERQMREQEERHVREAASYQEALARLEEEGQSLKD | binds | – |
| – | – | CΔ121 GFAP (domain or fragment, human, UniProt P14136 1-311, looked up, Human GFAPα, the initial 311 residues; truncation caused by a nonsense Alexander disease mutation; Expressed from pET23b; no tag named) MERRRITSAARRSYVSSGEMMVGGLAPGRRLGPGTRLSLARMPPPLPTRVDFSLAGALNAGFKETRASERAEMMELNDRFASYIEKVRFLEQQNKALAAELNQLRAKEPTKLADVYQAELRELRLRLDQLTANSARLEVERDNLAQDLATVRQKLQDETNLRLEAENNLAAYRQEADEATLARLDLERKIESLEEEIRFLRKIHEEEVRELQEQLARQQVHVELDVAKPDLTAALKEIRTQYEAMASSNMHEAEEWYRSKFADLTDAAARNAELLRQAKHEANDYRRQLQSLTCDLESLRGTNESLERQMR | – | 68% |
| binds | – | ΔEx5 GFAP (natural protein, Human GFAPα with an in-frame deletion of 42 residues, amino acids 261-302 (skipping of exon 5, an Alexander disease splice site mutation); Expressed from pET23b; no tag named; also called ΔEx5 mutant; ΔEx5 deletion mutant) not shown | – | 69% |
| – | binds | ΔEx4 GFAP (natural protein, Expressed from pET23b; no tag named; also called ΔEx4 mutant) not shown | binds | – |
| – | – | CΔ207 GFAP (domain or fragment, human, UniProt P14136 1-225, looked up, Human GFAPα, the first 225 amino acids; N-terminal fragment produced by caspase-6 cleavage at 222VELD225; Expressed from pET23b; no tag named) MERRRITSAARRSYVSSGEMMVGGLAPGRRLGPGTRLSLARMPPPLPTRVDFSLAGALNAGFKETRASERAEMMELNDRFASYIEKVRFLEQQNKALAAELNQLRAKEPTKLADVYQAELRELRLRLDQLTANSARLEVERDNLAQDLATVRQKLQDETNLRLEAENNLAAYRQEADEATLARLDLERKIESLEEEIRFLRKIHEEEVRELQEQLARQQVHVELD | – | 91% |
